Measurements: doi:10.1101/2020.08.10.245050, “Crystal structures of Arabidopsis and Physcomitrella CR4 reveal the molecular architecture of CRINKLY4 receptor kinases” (bioRxiv, 2020)
Where two headings read alike, the source gives them in different places. Where no end group is shown, it is not given here. [ ]: non-standard residue; d: D form. Hyp = O=C(O)[C@@H]1C[C@@H](O)CN1

What was measured:
[1] = target: T1, biotinylated LRR ectodomain of BARELY ANY MERISTEM 1 (BAM1, residues 20 - 637) with Avi-tag (Arabidopsis (printed as AtBAM1), UniProt O49545 20-637, biotin (BirA biotinylation))
T1 chain: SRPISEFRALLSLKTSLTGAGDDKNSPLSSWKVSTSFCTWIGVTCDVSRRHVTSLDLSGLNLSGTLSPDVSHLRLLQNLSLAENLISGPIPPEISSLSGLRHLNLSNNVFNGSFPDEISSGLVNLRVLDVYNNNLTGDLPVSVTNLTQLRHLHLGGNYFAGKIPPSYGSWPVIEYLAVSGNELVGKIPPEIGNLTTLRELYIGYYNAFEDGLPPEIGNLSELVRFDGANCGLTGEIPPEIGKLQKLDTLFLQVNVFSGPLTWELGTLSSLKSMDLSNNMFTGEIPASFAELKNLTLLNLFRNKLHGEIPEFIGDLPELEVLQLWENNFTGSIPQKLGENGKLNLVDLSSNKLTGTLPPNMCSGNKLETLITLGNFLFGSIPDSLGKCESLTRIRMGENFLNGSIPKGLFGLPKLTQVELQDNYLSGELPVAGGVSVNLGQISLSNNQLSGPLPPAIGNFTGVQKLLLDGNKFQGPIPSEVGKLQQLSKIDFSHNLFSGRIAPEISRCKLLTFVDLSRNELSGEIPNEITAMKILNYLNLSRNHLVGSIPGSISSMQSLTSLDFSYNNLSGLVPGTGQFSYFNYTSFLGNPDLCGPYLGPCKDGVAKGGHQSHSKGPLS

[2] = target: T1, biotinylated LRR ectodomain of BARELY …
[3] = target: T2, biotinylated LRR ectodomain of BARELY ANY MERISTEM 1 (BAM1, residues 20 - 637) with Avi-tag (Arabidopsis (printed as AtBAM1), UniProt O49545 20-637, biotin (BirA biotinylation)); experiment: grating-coupled interferometry (GCI); Creoptix WAVE, 4PCP chip; biotinylated ectodomain captured on immobilised streptavidin; CLE40 peptide as analyte, 1:2 dilution series from 10 µM; 25 °C; 20 mM citrate pH 5.0, 250 mM NaCl, 0.01 % Tween 20; mass transport binding model; triplicates; conditions: both partners purified
T2 construct: BAM1 (AtBAM1) LRR ectodomain, residues 20-637, synthetic gene (Geneart), secreted with the Drosophila melanogaster BiP signal peptide; The sentence on the vector most likely means that the non-cleavable Avi-tag is C-terminal as well; also called AtBAM1^LRR; BAM1^LRR; source: biotinylated with BirA; not shown: StrepII, C-terminal, cleaved; 10x His, C-terminal, cleaved
T2 sequence (looked up): T1 chain

Kd [1]: 697 nM | koff [2]: 2.4 s⁻¹ | Kd [3]: ~1000 nM
B1: CLAVATA3/ESR-RELATED 40 (CLE40) peptide (peptide)
peptide: RQV[Hyp]TGSDPLHH
notes: the P at position 4 is hydroxyproline; also called synthetic CLE40 peptide; source: synthetic peptide (Peptide Specialty Labs GmbH)
